Experimental data taken from the supplement of paper PMC12042874.
± gives the uncertainty stated by the source.

Test: amyloid nucleation score (Sup35N fusion, yeast selection) (log enrichment); library NNK1; higher = more nucleation; inactive = no reads after selection
Outline: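 Growth for 7 days at 30°C on medium lacking adenine and uracil followed a 24-hour induction with 100 μM copper sulfate of psi-negative yeast expressing peptides of 20 random codons fused to Sup35N. Input and output plasmid inserts were sequenced with Illumina, and sequences with under 100 input reads were excluded. Nucleation score is the DiMSum log enrichment of output over input reads, centred on the mode score of non-aggregating sequences.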

Row | Substance | amyloid nucleation score
1 | CFILTVTYLNVGGNRMTAFH | 3.36 ± 0.1
2 | CFNTRHRVQELRL | -0.224 ± 1.7
3 | CFNVYWLFAIGGYGMRLRSD | -1.04 ± 1.1
4 | CFRDGYSKLCGCYVSMRTGH | 0.459 ± 0.53
5 | CFRTFKFLI | 2.49 ± 0.27
6 | CFSQPHGAVANHNAFSDNPW | -0.289 ± 0.39
7 | CFVMLFDRYVNLLIGNQLWY | 0.145 ± 0.35
8 | CFVVYGQTPSTVPRINAVLS | 6.46 ± 0.069
9 | CGADVNVWMTIWHYLFIDRG | inactive
10 | CGFDRMAMYWVNFDLHWSSA | 0.121 ± 0.36
11 | CGKPPFGNYWGTWCKIVVTL | 0.746 ± 0.62
12 | CGMARWSRKSTELAHKQNVD | 0.277 ± 0.61
13 | CGSRSCSLFDRKWIRYFLGC | 0.759 ± 0.34
14 | CGVEA | -0.542 ± 0.76
15 | CHLIL | 0.115 ± 0.34
16 | CHLTMIMNLVIMMAWNPLHC | 0.765 ± 0.47
17 | CHYMSHSSWHSWTNRVMRDM | 0.531 ± 0.29
18 | CIFLM | 0.21 ± 0.48
19 | CIGNCYGWLSDLSWWSCPSS | 0.676 ± 0.3
20 | CIIDKFGVLIV | inactive
21 | CIILKTIPIIDY | inactive
22 | CIIVFPISTPWAQGSYIRIQ | 0.041 ± 1.2
23 | CILSSHL | 2.61 ± 0.33
24 | CISAVPCM | 0.497 ± 0.43
25 | CIYIQYYLNLTVFCRVRLNA | -0.516 ± 1.7

Row | Substance | amyloid nucleation score
26 | CIYIWCGVFGSYFGFLVLAA | 0.18 ± 0.49
27 | CLARNSYPDVFRSETGKEAV | -0.093 ± 0.7
28 | CLCLKVFLQKVVRGCNR | 1.01 ± 0.29
29 | CLDVFASISMRHFYFVFMCY | 0.487 ± 0.75
30 | CLFLIKKHVNNDMGSVRRLS | 0.317 ± 0.71
31 | CLFNSGFSDIGLRGMWGRKF | 0.358 ± 0.35
32 | CLGAVIDSGNHSNSCYIRGD | 2.07 ± 0.67
33 | CLKFLDLNIKIDPYQFSF | inactive
34 | CLKHLWLRQSKEKVD | inactive
35 | CLLFTEMFTPLVEVAESM | -0.038 ± 0.48
36 | CLLHEASCGWFFGWFVRHT | 0.989 ± 0.28
37 | CLNVYNLFMSLPGVAAPPMV | 6.9 ± 0.085
38 | CLRLVQEFTFMYTVVHGARC | 1.13 ± 0.71
39 | CLSSALLHLFRRNRIISVVT | 0.193 ± 0.39
40 | CLTIGCWRFSF | 4.57 ± 0.093
41 | CLVVPCD | 0.151 ± 0.42
42 | CMGLFVTSSL | 0.38 ± 1.2
43 | CMIIRVGGRQGIHYSFSRMD | -0.652 ± 0.26
44 | CMLLNWIPMRRARLTTFVGK | 0.433 ± 0.58
45 | CMRMRMFSKVVGSLWWESGY | 0.054 ± 0.39
46 | CMTPS | inactive
47 | CMYFFRVTGKINNINSLYCW | -0.824 ± 0.38
48 | CNFHVCLRLRDIWSRLYLVV | 7.157 ± 0.07
49 | CNHSTSFVEVVERL | -0.085 ± 0.42
50 | CNLYFSYNCVFT | -0.592 ± 0.24

Row | Substance | amyloid nucleation score
51 | CNPSG | 0.819 ± 0.51
52 | CNQYWVSQ | 0.322 ± 0.26
53 | CNRLIHDMHVCLTNE | inactive
54 | CNSLTLFRWYFNMVGNIQAN | -0.143 ± 0.37
55 | CPGFD | 0.595 ± 0.64
56 | CPLRIIQLMCTNRGLMGRLG | -0.071 ± 0.31
57 | CPMWYYCRSVLSSLAVSDCS | inactive
58 | CPRTWFLENNRVTIMHFYRG | 6.67 ± 0.08
59 | CPVWELLKDCMCHKNGLFCT | 1.28 ± 0.58
60 | CQIPVFENYFLHLGWSYAPL | 0.224 ± 1.4
61 | CQNFDDI | 0.117 ± 0.9
62 | CQSVFRGTIHS | -0.235 ± 0.55
63 | CRACSHMTKLLIGTFLLLDF | -0.325 ± 0.6
64 | CRCSSQLRYMHGRFWFDRSV | 0.084 ± 0.62
65 | CRFMSVICHTLFWTPLTFYY | 0.592 ± 0.83
66 | CRGFFLGFPIHQVKAFCFCR | -0.047 ± 1.7
67 | CRIVKARDGC | -1.23 ± 2.4
68 | CRKVITRVGSVTVTGGFYLI | -0.374 ± 0.67
69 | CRLKLNPSVHGIGRGVCLAE | -0.464 ± 0.48
70 | CRMGFNQLWLKLRNRCVGLG | -0.008 ± 0.36
71 | CRNTLPGP | -0.398 ± 0.44
72 | CRRIWA | -0.377 ± 0.34
73 | CRTYYCHTHGPAQKDHYDRG | -0.78 ± 0.89
74 | CRVLWQWNSKLGCFAAALNL | -0.326 ± 0.63
75 | CRYTMGSNKVALFYGWMHPG | 0.726 ± 0.66

Row | Substance | amyloid nucleation score
76 | CSDRRS | -0.054 ± 0.53
77 | CSKFLVVVSVYFLVYSVEHM | -0.94 ± 1.6
78 | CSLRYVLHYRYVGLETATNT | 0.763 ± 0.5
79 | CSQLLKLTQSAYLFFVNQDS | 0.676 ± 0.52
80 | CSSIWHCPVYDVITLM | 0.282 ± 0.75
81 | CSTFRVDFFSPCFLL | 6.006 ± 0.05
82 | CSVMSNARRIWDRMQLNGVK | -0.568 ± 0.33
83 | CSWDYMVVR | -0.137 ± 0.98
84 | CTEFRFF | 0.314 ± 0.47
85 | CTFILVLHLLHINTDHIMSA | -0.176 ± 1.1
86 | CTGSVWYAPLWMWWEWLR | 0.498 ± 0.69
87 | CTIRYWF | 1.5 ± 0.42
88 | CTVMHELCCRWFELFRRSVR | 1.45 ± 0.63
89 | CVCLKDPANLSAIGCRGESL | -1.6 ± 2.7
90 | CVCLRGDKGPLSRLRLRSSS | 0.254 ± 1
91 | CVDCALQFLGCRVGALLTRG | -0.875 ± 1.7
92 | CVELVLSCV | -0.095 ± 0.43
93 | CVLFAYFNALF | 1.3 ± 0.57
94 | CVRLHPSDWAFYRAPFNKHG | 0.659 ± 0.55
95 | CVRNGLGCYSCTRTFFTVIV | -0.409 ± 0.94
96 | CVSFMVTFTIMRQLYNCKCR | 3.91 ± 0.077
97 | CVVGLISGSPPIRSVFKCNR | 0.156 ± 0.98
98 | CWFTAVLARPLWNSSVSSVA | -0.369 ± 0.34
99 | CWGLLSGDCHALEKFNRFYL | -0.086 ± 0.48
100 | CWLGCYPSSGEQWGGWFNAI | -0.344 ± 0.7

Row | Substance | amyloid nucleation score
101 | CWLTRCCITWVIHRVMANLM | 0.51 ± 0.84
102 | CYELSGWGNSWVGNRSLGFV | 0.626 ± 0.46
103 | CYIYPVFLGFMYCREEGNMG | 1.93 ± 0.37
104 | CYLPWDSKNGVEDLYWYEFK | 1.79 ± 0.13
105 | CYYSRFHFAPISIMFCVNGG | 5.99 ± 0.076
106 | DAMFLL | -0.358 ± 0.31
107 | DATCLESLALSYKG | -0.573 ± 0.41
108 | DCEGLFI | 0.864 ± 0.74
109 | DCESVWSIKGNKPMLFDRIL | -1.45 ± 1.7
110 | DCNFCL | -0.545 ± 1.1
111 | DCSFRCMYAIMLYVLCLSHN | 0.422 ± 0.35
112 | DCWRRYYSSLLITVGGLFYK | -0.014 ± 0.34
113 | DCWSITILSVNRGSLFRLTF | inactive
114 | DCYHLGQTIPISRFGLRTKL | 0.826 ± 0.75
115 | DCYSRNVDLYGCGDDGDILL | -0.031 ± 0.25
116 | DDFTLCKPGLVYMMSG | 0.398 ± 0.6
117 | DDLSGRRELTLRQT | 0.618 ± 0.49
118 | DDLWSCMFELDAYMSFYLKA | inactive
119 | DDMVPNWARVTCLSQNWL | 0.385 ± 0.54
120 | DDNGPTYR | inactive
121 | DDNSMSDTHLL | 1.13 ± 0.25
122 | DDRTKLQLSMRWEQQIMRHR | 3.48 ± 0.12
123 | DDTDLVLVMRRSIVERGMRE | 0.437 ± 0.39
124 | DEDDSD | 0.471 ± 0.46
125 | DEKMVSVSSESGRLHKNVKC | 1.11 ± 0.49

Row | Substance | amyloid nucleation score
126 | DETLEEPCT | 0.017 ± 0.43
127 | DFARNQDGSFVWN | -0.575 ± 0.36
128 | DFEDTYSWKVTGEGATRKRW | 0.166 ± 0.49
129 | DFRLGHDFWANKSFFFTSPN | -0.028 ± 0.31
130 | DFSYSNPDFVFLTQYIAYEK | 4.43 ± 0.06
131 | DFVLIIFFCPCRYCSSTHTT | 3.32 ± 0.2
132 | DFVRMSRPHG | 0.563 ± 0.51
133 | DGFALGMSRC | inactive
134 | DGNNNKLVMVLWLSYADYRW | inactive
135 | DGSNRHLSRSMVGRGRT | 0.335 ± 0.8
136 | DGSSLSPDPSLVWLKDM | -0.823 ± 0.55
137 | DGVEFPFRMIESRFNGCQD | -0.613 ± 0.77
138 | DHLVEQYDRGDAAFFRLVFV | inactive
139 | DIAHC | -0.464 ± 0.59
140 | DIFVLMRAMWHRGMI | 0.857 ± 0.8
141 | DIGLREFNWVTNITTLPQLG | 1.33 ± 0.61
142 | DIGRSAGRGVFVFSLLCNKW | 3.63 ± 0.18
143 | DIHNRDCVLYDRLDRHVYMK | -0.083 ± 0.31
144 | DIILLYSLFADIFISGRIYT | -0.13 ± 0.58
145 | DILEIWL | -0.481 ± 0.4
146 | DIRIPMHLSIDLQVVLSLRY | 0.172 ± 0.63
147 | DIRLIPCMSMVC | -1.38 ± 1.1
148 | DITNVAWNMPNTRCEPKPLK | 0.444 ± 1.2
149 | DIYIMSNGLGYYFFSTNVRM | 2.55 ± 0.19
150 | DIYRRSVGGRWLRLFSRRVV | 0.209 ± 0.39

Row | Substance | amyloid nucleation score
151 | DKNVSRFIPNEMLCLKPWAP | 1.19 ± 0.9
152 | DKTGLGRRGPIIFSLSFRWS | -1.55 ± 1.4
153 | DKYTARDVSKRT | 1.56 ± 0.59
154 | DLDRDAKLS | -1.43 ± 0.7
155 | DLFDIDLRYFLLRVFKGCP | 0.579 ± 0.46
156 | DLFYYLRRLITRTWFM | 1.05 ± 0.27
157 | DLHRRSVCCFENVFVITAYY | 2.06 ± 0.27
158 | DLKVNCVGEWADRLFMFSFG | 0.683 ± 0.84
159 | DLLLRSSTSTVVCIMNRTTS | 3.94 ± 0.076
160 | DLLVNCDAVKLVYLSGYVDV | 0.342 ± 0.23
161 | DLNRSALSRDDGNSVILKCG | 0.653 ± 0.68
162 | DLRNMKVNTQDVSFLSPRGG | 0.208 ± 0.29
163 | DLVTSYWKIEGPILRSGGNM | -0.563 ± 0.49
164 | DLVYVSRLYISVNRYPSWFV | -0.462 ± 0.51
165 | DMFCQAI | 0.773 ± 0.39
166 | DMKDDRRSFTKGP | -0.103 ± 0.69
167 | DMTNAVCTRLNFIRLSTLMK | 0.041 ± 0.32
168 | DMYYNQTRVQKPPVMPQSLK | -0.667 ± 0.78
169 | DNAYPHPCSIYYNNNQFLRF | 6.734 ± 0.054
170 | DNLLEAASNNIIEYVCSPLE | 0.501 ± 0.44
171 | DNRSFFWNL | 2.22 ± 0.13
172 | DPSPLR | -0.827 ± 2.4
